Measured values reported in US20100240040A1 (INSTITUT PASTEUR, published 2010).
Where no end group is shown, it is not given here. Bodipy = not defined here

B1: BA-DR NLM (peptide)
peptide: C(Bodipy)RQIKIWFQNRRMKWKKLKAQADIYKARFQAERHAREK
modifications: reading uncertain
notes: also called BA-NLM-DR; DR NLM fused to its N-terminus with the antennapedia peptide
B2: BR7-DR NLM (peptide)
peptide: C(Bodipy)RRRRRRRLKAQADIYKARFQAERHAREK
modifications: reading uncertain
notes: also called DR NLM fused to the poly R7 peptide
B3: NLM (peptide)
peptide: LKAQADIYKADFQAERHAREK
notes: also called tag-free NLM; NLM peptide of NEMO
B4: DR NLM (peptide)
peptide: LKAQADIYKARFQAERHAREK
notes: also called tag-free DR NLM; NLM-DR

How the values were obtained:
spCC2-LZ = target: T1, spCC2-LZ (murine); test: fluorescence anisotropy, 10 µM labelled peptide titrated with spCC2-LZ
T1 construct: also called MOD; minimal oligomerization domain of NEMO
T1 chain: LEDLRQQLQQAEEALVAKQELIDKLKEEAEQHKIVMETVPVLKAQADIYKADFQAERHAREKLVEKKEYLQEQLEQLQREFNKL
From the text: The concentration of spCC2-LZ was determining by amino acid analysis (Vinolo et al; 2006).

[1] = target: NEMO (endogenous, in 70Z/3-C3 cells) (UniProt O88522 1-412, limits assumed); test: cell-based or functional assay
NEMO (endogenous, in 70Z/3-C3 cells), sequence (O88522 whole entry): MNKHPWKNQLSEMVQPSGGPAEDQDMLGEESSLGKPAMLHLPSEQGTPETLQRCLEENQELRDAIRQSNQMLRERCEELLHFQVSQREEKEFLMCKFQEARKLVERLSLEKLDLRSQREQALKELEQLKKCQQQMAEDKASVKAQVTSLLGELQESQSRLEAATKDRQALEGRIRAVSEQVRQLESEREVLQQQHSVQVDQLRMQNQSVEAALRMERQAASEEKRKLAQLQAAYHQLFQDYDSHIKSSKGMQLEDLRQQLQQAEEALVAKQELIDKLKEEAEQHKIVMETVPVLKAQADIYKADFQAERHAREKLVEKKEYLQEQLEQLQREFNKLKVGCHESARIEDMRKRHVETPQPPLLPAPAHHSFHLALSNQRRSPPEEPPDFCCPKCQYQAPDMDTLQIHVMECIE

[2] = target: the molecule itself; test: circular dichroism and gel filtration (data not shown)

Binder | Kd (spCC2-LZ) [µM] | IC50 of NF-κB activity (β-galactosidase reporter in 70Z/3-C3 cells after PMA, IL-1 or LPS) [1] [µM] | binding result [2]
B1 | 17 | 0.9 | –
B2 | 21 | – | –
B3 | – | – | no binding (tested: up to 100 µM)
B4 | – | – | no binding (tested: up to 100 µM)
